Reference: the supplement of paper PMC10201428
± gives the standard deviation of the averaged measurements.

B1: library; a variant is named by its letters at N, in order (parent)
chain: AATGTTGTTGATGCAACCATAAAGTGATATTTAATAATTATTTATAATCAGCAACTTAACCACAAAACAACCATATATTGATATNTCACAAAACAACCATAANTTGATATTTTTGTGAATCGAGTATTTCAGCAAAACTACTGCAGTAAGAA

What was measured:
[1] = variants of: B1; test: relative integration efficiency (T-LR orientation) vs wild-type transposon end (log2 (normalized fold change)); transposon end mutated: left end; higher = more efficient transposition; settings: with VchCAST RNA-guided transposition machinery (E. coli BL21(DE3) host, lacZ target)
Procedure, shortened: (§1)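 Barcoded pools of 1549 left-end or 1849 right-end transposon variants were cloned into a pUC57 mini-transposon donor. Each pool was co-transformed with a T7-driven effector plasmid (CRISPR array, tniQ-cas8-cas7-cas6, tnsA-tnsB-tnsC) into E. coli BL21(DE3) and plated with 0.1 mM IPTG at 37°C for 18 h. Input plasmids and genomic integration junctions were PCR-amplified and Illumina-sequenced, with two biological output replicates and four wild-type barcodes as reference. Relative integration efficiency is output/input barcode abundance fold change, normalised to wild-type barcodes and log-transformed.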

[2] = variants of: B1; test: relative integration efficiency (T-RL orientation) vs wild-type transposon end (log2 (normalized fold change)); transposon end mutated: left end; higher = more efficient transposition; settings: with VchCAST RNA-guided transposition machinery (E. coli BL21(DE3) host, lacZ target)
Procedure, shortened: as §1

Question: AATGTTGTTGATGCAACCATAAAGTGATATTTAATAATTATTTATAAGACTACCAGGCACCACAAAACAACCATATATTGATATCTCACAAAACAACCATAAGTTGATATTTTTGTGAATCGAGTATTTCAGCAAAACTACTGCAGTAAGAA [CG T48G C49A A50C G51T C52A A53C A54C C55A T56G T57G A58C] was tested. Which “relative integration efficiency (log2)” value [1] did it give?
Answer: -3.04 ± 1.4

Question: What about the “relative integration efficiency (log2)” value [2] of the same variant?
Answer: -2.79 ± 0.63

Question: Which “relative integration efficiency (log2)” value [1] does the source give for AATGTTGTTGATGCAACCATAAAGTGATATTTAATAATTATTTATAATCAGCAACATAACCACAAAACAACCATATATTGATATCTCACAAAACAACCATAAGTTGATATTTTTGTGAATCGAGTATTTCAGCAAAACTACTGCAGTAAGAA [CG T56A] here?
Answer: 0.188 ± 0.11

Question: What about the “relative integration efficiency (log2)” value [2] of the same variant?
Answer: -0.167 ± 0.0046

Question: Which “relative integration efficiency (log2)” value [1] does the source give for AATGTTGTTGATGCAACCATAAAGTGATATTTAATAATTATTTATAATCAGCAACAAAACCACAAAACAACCATATATTGATATCTCACAAAACAACCATAAGTTGATATTTTTGTGAATCGAGTATTTCAGCAAAACTACTGCAGTAAGAA [CG T56A T57A] here?
Answer: -0.409 ± 0.79

Question: What about the “relative integration efficiency (log2)” value [2] of the same variant?
Answer: -0.165 ± 0.21

Question: Which results are given for AATGTTGTTGATGCAACCATAAAGTGATATTTAATAATTATTTATAATCAGCAACAATTCCACAAAACAACCATATATTGATATCTCACAAAACAACCATAAGTTGATATTTTTGTGAATCGAGTATTTCAGCAAAACTACTGCAGTAAGAA [CG T56A T57A A58T A59T]?
Answer: relative integration efficiency (log2) [1]: -1.3 ± 0.89; relative integration efficiency (log2) [2]: -1.52 ± 0.76

Question: What does the source list for AATGTTGTTGATGCAACCATAAAGTGATATTTAATAATTATTTATAATCAGCAACCTAACCACAAAACAACCATATATTGATATCTCACAAAACAACCATAAGTTGATATTTTTGTGAATCGAGTATTTCAGCAAAACTACTGCAGTAAGAA [CG T56C]?
Answer: relative integration efficiency (log2) [1]: -0.129 ± 0.16; relative integration efficiency (log2) [2]: -0.2 ± 0.061

Question: Which “relative integration efficiency (log2)” value [1] does the source give for AATGTTGTTGATGCAACCATAAAGTGATATTTAATAATTATTTATAATCAGCAACGTAACCACAAAACAACCATATATTGATATCTCACAAAACAACCATAAGTTGATATTTTTGTGAATCGAGTATTTCAGCAAAACTACTGCAGTAAGAA [CG T56G] here?
Answer: -0.0431 ± 0.26

Question: What about the “relative integration efficiency (log2)” value [2] of the same variant?
Answer: -0.112 ± 0.12

Question: For AATGTTGTTGATGCAACCATAAAGTGATATTTAATAATTATTTATAATCAGCAACGGAACCACAAAACAACCATATATTGATATCTCACAAAACAACCATAAGTTGATATTTTTGTGAATCGAGTATTTCAGCAAAACTACTGCAGTAAGAA [CG T56G T57G], which “relative integration efficiency (log2)” value [1] is on record?
Answer: -1.54 ± 0.34

Question: What about the “relative integration efficiency (log2)” value [2] of the same variant?
Answer: -1.59 ± 0.66

Question: With AATGTTGTTGATGCAACCATAAAGTGATATTTAATAATTATTTATAATCAGCAACGGCCCCACAAAACAACCATATATTGATATCTCACAAAACAACCATAAGTTGATATTTTTGTGAATCGAGTATTTCAGCAAAACTACTGCAGTAAGAA [CG T56G T57G A58C A59C] as the variant, how does the “relative integration efficiency (log2)” value [1] read?
Answer: -2.31 ± 0.94

Question: What about the “relative integration efficiency (log2)” value [2] of the same variant?
Answer: -1.82 ± 0.62

Question: How did the “relative integration efficiency (log2)” value [1] turn out when AATGTTGTTGATGCAACCATAAAGTGATATTTAATAATTATTTATAATCAGCAACTAAACCACAAAACAACCATATATTGATATCTCACAAAACAACCATAAGTTGATATTTTTGTGAATCGAGTATTTCAGCAAAACTACTGCAGTAAGAA [CG T57A] was run?
Answer: -0.137 ± 0.84

Question: What about the “relative integration efficiency (log2)” value [2] of the same variant?
Answer: 0.139 ± 0.15

Question: What does the source list for AATGTTGTTGATGCAACCATAAAGTGATATTTAATAATTATTTATAATCAGCAACTATACCACAAAACAACCATATATTGATATCTCACAAAACAACCATAAGTTGATATTTTTGTGAATCGAGTATTTCAGCAAAACTACTGCAGTAAGAA [CG T57A A58T]?
Answer: relative integration efficiency (log2) [1]: -3.38 ± 2.1; relative integration efficiency (log2) [2]: -0.792 ± 0.44

Question: AATGTTGTTGATGCAACCATAAAGTGATATTTAATAATTATTTATAATCAGCAACTATTGCACAAAACAACCATATATTGATATCTCACAAAACAACCATAAGTTGATATTTTTGTGAATCGAGTATTTCAGCAAAACTACTGCAGTAAGAA [CG T57A A58T A59T C60G] was tested. Which “relative integration efficiency (log2)” value [1] did it give?
Answer: 1.28 ± 0.42

Question: What about the “relative integration efficiency (log2)” value [2] of the same variant?
Answer: 0.281 ± 1

Question: Which “relative integration efficiency (log2)” value [1] does the source give for AATGTTGTTGATGCAACCATAAAGTGATATTTAATAATTATTTATAATCAGCAACTCAACCACAAAACAACCATATATTGATATCTCACAAAACAACCATAAGTTGATATTTTTGTGAATCGAGTATTTCAGCAAAACTACTGCAGTAAGAA [CG T57C] here?
Answer: -0.422 ± 0.61

Question: And the “relative integration efficiency (log2)” value [2]?
Answer: -0.546 ± 0.31

Question: Which results are given for AATGTTGTTGATGCAACCATAAAGTGATATTTAATAATTATTTATAATCAGCAACTGAACCACAAAACAACCATATATTGATATCTCACAAAACAACCATAAGTTGATATTTTTGTGAATCGAGTATTTCAGCAAAACTACTGCAGTAAGAA [CG T57G]?
Answer: relative integration efficiency (log2) [1]: -1.94 ± 0.91; relative integration efficiency (log2) [2]: -1.33 ± 0.56

Question: How did the “relative integration efficiency (log2)” value [1] turn out when AATGTTGTTGATGCAACCATAAAGTGATATTTAATAATTATTTATAATCAGCAACTGCACCACAAAACAACCATATATTGATATCTCACAAAACAACCATAAGTTGATATTTTTGTGAATCGAGTATTTCAGCAAAACTACTGCAGTAAGAA [CG T57G A58C] was run?
Answer: -1.37 ± 0.37

Question: And the “relative integration efficiency (log2)” value [2]?
Answer: -1.45 ± 0.67

Question: How did the “relative integration efficiency (log2)” value [1] turn out when AATGTTGTTGATGCAACCATAAAGTGATATTTAATAATTATTTATAATCAGCAACTGCCACACAAAACAACCATATATTGATATCTCACAAAACAACCATAAGTTGATATTTTTGTGAATCGAGTATTTCAGCAAAACTACTGCAGTAAGAA [CG T57G A58C A59C C60A] was run?
Answer: -1.48 ± 0.099

Question: And the “relative integration efficiency (log2)” value [2]?
Answer: -0.817 ± 0.47

Question: AATGTTGTTGATGCAACCATAAAGTGATATTTAATAATTATTTATAATCAGCAACTTAACCACAAAACAACCAAATATTGATATCTCACAAAACAACCATAAGTTGATATTTTTGTGAATCGAGTATTTCAGCAAAACTACTGCAGTAAGAA [CG T74A] was tested. Which “relative integration efficiency (log2)” value [1] did it give?
Answer: -0.12 ± 0.44

Question: And the “relative integration efficiency (log2)” value [2]?
Answer: -0.331 ± 0.2

Question: What does the source list for AATGTTGTTGATGCAACCATAAAGTGATATTTAATAATTATTTATAATCAGCAACTTAACCACAAAACAACCAATTATTGATATCTCACAAAACAACCATAAGTTGATATTTTTGTGAATCGAGTATTTCAGCAAAACTACTGCAGTAAGAA [CG T74A A75T]?
Answer: relative integration efficiency (log2) [1]: -0.113 ± 0.66; relative integration efficiency (log2) [2]: -0.22 ± 0.27

Question: For AATGTTGTTGATGCAACCATAAAGTGATATTTAATAATTATTTATAATCAGCAACTTAACCACAAAACAACCAATATTTGATATCTCACAAAACAACCATAAGTTGATATTTTTGTGAATCGAGTATTTCAGCAAAACTACTGCAGTAAGAA [CG T74A A75T T76A A77T], which “relative integration efficiency (log2)” value [1] is on record?
Answer: -0.829 ± 0.96

Question: What about the “relative integration efficiency (log2)” value [2] of the same variant?
Answer: -0.759 ± 0.32

Question: With AATGTTGTTGATGCAACCATAAAGTGATATTTAATAATTATTTATAATCAGCAACTTAACCACAAAACAACCACATATTGATATCTCACAAAACAACCATAAGTTGATATTTTTGTGAATCGAGTATTTCAGCAAAACTACTGCAGTAAGAA [CG T74C] as the variant, how does the “relative integration efficiency (log2)” value [1] read?
Answer: -0.976 ± 1.2

Question: What about the “relative integration efficiency (log2)” value [2] of the same variant?
Answer: -1.33 ± 0.63
